The text below walks through data of patent US20030113787A1 (Takeda / Millennium, published 2003).

Numbering of substitutions follows the chain as printed. Numbers in names are those of the source.

The target in assay [1] is T1, FLAG-CARD10/ΔCARD (human, UniProt Q9BWT7 131-1032).
T1 construct: also called CARD-10 truncation mutant lacking its CARD domain
T1 sequence: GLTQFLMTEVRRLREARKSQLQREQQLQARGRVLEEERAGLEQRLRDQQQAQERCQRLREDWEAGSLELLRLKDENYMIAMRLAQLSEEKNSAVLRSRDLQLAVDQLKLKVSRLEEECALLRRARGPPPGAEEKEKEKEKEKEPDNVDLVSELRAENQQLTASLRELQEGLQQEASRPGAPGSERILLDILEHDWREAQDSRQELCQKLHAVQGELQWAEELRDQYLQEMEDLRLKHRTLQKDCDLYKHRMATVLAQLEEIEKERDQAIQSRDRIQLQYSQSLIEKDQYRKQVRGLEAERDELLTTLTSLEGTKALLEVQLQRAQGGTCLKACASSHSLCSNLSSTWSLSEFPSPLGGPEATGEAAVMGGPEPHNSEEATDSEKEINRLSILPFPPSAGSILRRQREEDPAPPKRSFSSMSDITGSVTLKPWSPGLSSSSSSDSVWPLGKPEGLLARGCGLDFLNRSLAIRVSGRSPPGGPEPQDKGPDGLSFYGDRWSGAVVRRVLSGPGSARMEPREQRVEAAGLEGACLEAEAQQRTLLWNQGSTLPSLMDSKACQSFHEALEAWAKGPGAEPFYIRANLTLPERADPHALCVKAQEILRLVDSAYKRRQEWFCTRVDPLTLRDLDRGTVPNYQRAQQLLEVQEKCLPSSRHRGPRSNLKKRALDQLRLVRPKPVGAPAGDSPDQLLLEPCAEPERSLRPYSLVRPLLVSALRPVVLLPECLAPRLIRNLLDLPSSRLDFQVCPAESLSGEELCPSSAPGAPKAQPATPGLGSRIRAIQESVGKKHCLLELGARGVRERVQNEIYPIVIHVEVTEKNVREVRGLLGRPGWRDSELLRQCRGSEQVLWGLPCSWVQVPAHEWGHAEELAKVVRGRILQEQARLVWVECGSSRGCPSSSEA
The experiment in a line: co-immunoprecipitation from transfected 293T cells.

The next assay deals with T2, FLAG-tagged CARD-10 (human, UniProt Q9BWT7 1-1032).
T2 construct: Expressed in 293T cells; also called FLAG-CARD-10
T2 sequence: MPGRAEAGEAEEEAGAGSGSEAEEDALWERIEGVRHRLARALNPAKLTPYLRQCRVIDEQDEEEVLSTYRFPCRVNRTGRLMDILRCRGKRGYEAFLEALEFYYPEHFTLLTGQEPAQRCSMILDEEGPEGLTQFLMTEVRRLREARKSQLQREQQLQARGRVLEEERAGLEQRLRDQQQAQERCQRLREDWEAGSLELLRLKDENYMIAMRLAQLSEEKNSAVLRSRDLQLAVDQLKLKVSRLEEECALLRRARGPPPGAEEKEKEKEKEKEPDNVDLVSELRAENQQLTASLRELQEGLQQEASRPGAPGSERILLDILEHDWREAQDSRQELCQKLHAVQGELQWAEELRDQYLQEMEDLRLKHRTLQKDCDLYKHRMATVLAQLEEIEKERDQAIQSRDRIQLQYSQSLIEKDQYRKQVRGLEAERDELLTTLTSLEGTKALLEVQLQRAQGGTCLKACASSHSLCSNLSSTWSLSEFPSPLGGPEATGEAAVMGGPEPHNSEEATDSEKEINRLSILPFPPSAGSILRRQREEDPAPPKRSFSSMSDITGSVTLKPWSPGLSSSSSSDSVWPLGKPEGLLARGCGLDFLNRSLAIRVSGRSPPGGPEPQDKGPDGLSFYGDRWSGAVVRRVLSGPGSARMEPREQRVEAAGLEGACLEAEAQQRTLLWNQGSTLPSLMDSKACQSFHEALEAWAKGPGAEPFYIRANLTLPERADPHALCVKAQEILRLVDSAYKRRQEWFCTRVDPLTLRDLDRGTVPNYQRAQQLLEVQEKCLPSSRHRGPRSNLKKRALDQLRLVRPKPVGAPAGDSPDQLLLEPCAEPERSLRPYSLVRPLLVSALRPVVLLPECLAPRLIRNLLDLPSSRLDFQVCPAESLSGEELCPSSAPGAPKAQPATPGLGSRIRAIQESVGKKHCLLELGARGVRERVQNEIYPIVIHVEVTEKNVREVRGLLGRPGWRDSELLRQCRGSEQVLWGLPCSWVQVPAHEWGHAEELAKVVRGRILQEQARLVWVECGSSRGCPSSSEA
The experiment in a line: co-immunoprecipitation from transfected 293T cells.

The target of assay [2] is T1, FLAG-CARD10/ΔCARD. The experiment in a line: co-immunoprecipitation with anti-Bcl-10 antibodies, anti-FLAG blot.

B1: variant Bcl-10 with a point mutation (L41R) (other, UniProt O95999 1-233, looked up)
chain: MEPTAPSLTEEDLTEVKKDALENLRVYLCEKIIAERHFDHRRAKKILSREDTEEISCRTSSRKRAGKLLDYLQENPKGLDTLVESIRREKTQNFLIQKITDEVLKLRNIKLEHLKGLKCSSCEPFPDGATNNLSRSNSDESNFSEKLRASTVMYHPEGESSTTPFFSTNSSLNLPVLEVGRTENTIFSSTTLPRPGDPGAPPLPPDLQLEEEGTCANSSEMFLPLRSRTVSRQ
notes: also called Bcl-10 L41R mutant
As for B1, the binding result with FLAG-CARD10/ΔCARD [1] and with FLAG-tagged CARD-10 was “no binding” throughout.

B2: endogenous Bcl-10 (other, human, UniProt O95999 1-233, looked up)
chain: B1 chain with R41L
notes: Endogenous protein in cell extracts
As to B2, the binding result in the assay with FLAG-CARD10/ΔCARD [2] is listed as “no binding”.
